# Measured values as given in paper PMC5733061.
# Experiments:
# [1] = system: EcFadR (Escherichia coli); test: SPR; settings: SPR: 20 mM Tris-HCl pH 7.5, 200 mM NaCl, 0.005% Tween 20, 25 C, protein 31.25-1000 nM; EMSA: binding buffer composition not given, room temperature, 5 pmol …
# [2] = system: ValFadR (Vibrio alginolyticus); test: SPR; settings: SPR: 20 mM Tris-HCl pH 7.5, 200 mM NaCl, 0.005% Tween 20, 25 C, protein 31.25-1000 nM; EMSA: binding buffer composition not given, room temperature, 5 pmol …
substance,measurement,setting,value
fabA probe (SPR),Kd,[1],559 nM
same,Kd,[2],258 nM
